Data from the DeepSol protein solubility set.

Test: soluble on expression in E. coli; label from the status in PepcDB or PDB records

| Sequence | soluble on expression in E. coli |
| --- | --- |
| MGSDKIHHHHHHMVTHWLPDLSTAEGPLYIRIADRAEADIKTGRLSSGAKLPPQRDLAFDLKVTIGTITRAYALLRERGLVTGEVGRGTYVQSSLAESETDIHRDPVTLTYGGTRTLSPPPGKLRFDTTAAIDVGQADIIGRLMTDIARDQPDEIASYTRTLLPDWLEAGRRWLSNGDWSPEAANIVPQMGVHAGVNAVIAAISGTGDRIVCEHLTYSQIARSASLMGRQIALVDSDHDGIMPEDFERVCAREHPKAAFIMSSGQNPTLSCLPLSRRLEIIDIARRYNVWLIEDYIYGALVDDGIPLLAQLAPDRTFLLNSLSKSVAAGVRGGWVACPDHMSQRVRVTQKMVCGGLPFLLAELSARLVLSGAADDIRGRVLEELSAREQIVRQLFEGYEFRSHPRLPYFWLKLPEPWLSGTFKQAALDQGVLIDDEDEFKPARSSRVFHHIRAGFSEGRDRSIAEGGLITLRRILDQIPVGSNAVM | not soluble |
| MSPEKYLQDWQTSQTIAESISPLIGKLYRQKGIEVVLFGKTLINATTIDILKTHRVARRYTGSPLSLEHTMPIIQALCEMSISSCRVDVGQLATKYWNEHEDTAALNDFLQTALQGARDADSS | not soluble |
| MGSDKIHHHHHHLLYRTIMVGENLESMQCEKYFESLFDVDFDYLVGLGKEMPTILFIDASKYSKDVLNDWIFAFTNIILINNNPIRAFIIRGYSEELQEFKGYYRVVSSYKSPRQIVQEIISNVNDHLDKMIGNSSRVIQMKKMLVLSMFYDGSIMILGETGSGKNLLAEVIAKLSPRGSRPFYSINCAAIPENLLESEIFGYKKGAFTGATSEKVGLIEQANNGTLFLDEIGDMPLNLQAKILAITENREFFKIGATRPIKVDVRFITATNRYDDSAMRNDLRYRLSAVKIDLPPLRERKSDISLIFDEILEKKGYLVKFENIPQDLKERFLSYSYPGNVRELINMIEEYLAVNDVVQASVNSSMSKYVKVLAEEAIVARMVNGTSYKDFLQEVYKSVSQELLLQRSEVLKNDINEIAREFGLTTRRIRDLLAELNSSAKALTPNDDDE | not soluble |
| SSTHVAGLGLDKMKLGNPQSFLDQEEADDQQLLEPEAWKTYTERRNALREFLTSDLSPHLLKRHHARMQLLRKCSYYIEVLPKHLALGDQNPLVLPSALFQLIDPWKFQRMKKVGTAQTKIQLLLLGDLLEQLDHGRAELDALLRSPDPRPFLADWALVERRLADVSAVMDSFLTMMVPGRLHVKHRLVSDVSATKIPHIWLMLSTKMPVVFDRKASAAHQDWARLRWFVTIQPATSEQYELRFRLLDPRTQQECAQCGVIPVAACTFDVRNLLPNRSYKFTIKRAETSTLVYEPWRDSLTLHTKPEPLEGPALSHSV | soluble |
| DPAAADRAEELRIQNLLKQLQQAVTNNDLTIYYQPIMSLQQQSLELYQIYIGLHGDEELISSVTLLEIAKKRELIAQIDRWVVARAIAQIGERQRAGHTTHLLVQIDSASFTDPQLLTMLRTELAAHHVRGEQLWLQTPESKVFTHLYNAQQFLSEISVQGCKMGLEQFGTGLDSFQLLTHFKPAFLKLDRNLTQDINSNHDSLEKIREITSRAQDNGIATFAEFVTDSTSMSALFKVGVDYVQGDFVAPI | not soluble |
| MAAHQLSDFQRNKILRVFNTFYDCNHDGVIEWDDFELAIKKICNLHSWPTDGKKHNEARATLKLIWDGLRKYADENEDEQVTKEEWLKMWAECVKSVEKGESLPEWLTKYMNFMFDVNDTSGDNIIDKHEYSTVYMSYGIPKSDCDAAFDTLSDGGKTMVTREIFARLWTEYFVSNDRGAKGNHLFGTLKL | soluble |
| MILPNPLARRLFLHLHALAEPPTGPAKGEALLALIDRLGFVQIDSISTVARAHHMILFARRQAYRPEALDRLLAQRHLFEHWTHDAAVIPARFFPFWHHRFRRDRPRLLARWRGWQREGFEEQFDAVLARIAESGPVSAAEVGEEEERGTGGWWDWHPSKAALEYLWRVGELSITRRDSFRKVYDLTSRVIPSGWLAMDPGDAATIHWACSEALDRLGFATSGELAAFWAAASPAEAQAWCHDALARGEIVEVRVEGADGSLRRSYARPEVAALAEAAPDPSPRLRILSPFDPVLRDRARAERLFGFRYRIEVFVPEAKRTYGYYVFPILEGDRLIGRIDMRAHRESGSLRVRALWPEAGVRLGSRRLGRLGAELDRLAQFAGCDQVKFEPDWLRETLPEGSVAGDLEHHHHHH | not soluble |
| MGSDKIHHHHHHMINSYISQQIERNFPYKPTDDQFLALHTLTEFLLSEEPDSLLLMKGYAGTGKTSLVGALVKTLNELKQKTFLLAPTGRAAKVFSGYAGQKAYTIHKKIYRQRAFSNEPTGFMPADNLHKDTLFIVDEASMIANEGLDSFVFGSGRLLDDLIQYVYSGENCRLILMGDVAQLPPVMQTESPALNPEILRGYNLQVWEIALTQVVRQSEDSGILFNATRLRDALRNHTVEIFPKLQLKGFSDFTKVNGDELIEEISSAYSRDGMEETMIISRSNKRATIYNNGIRNRILYREEELSSGDRLMVAKNNYYWTANCKEMDFIANGEIIQVMRVRRVTEMYGFRFADITARFQDYDLEIDLKILLDTLQTDSPALPKELNDKLFYTILEDYEDIPTKAGKMKKMKVDPHYNVVQVKYAYAVTCHKAQGGQWMNVFLDIGYITEEMLGEDFYRWLYTAFTRATHHLYLVNLPDEFVE | not soluble |
| MGSDKIHHHHHHMKIAFDVDVIKHLPITQMVRQVSEWGYKYIEQSPHPRINPFYKHPKAGRDTMQEYKRALQNYGVEISSFIVVYRWSGPDEERRRAAVTNWKRMIEIAVDMGVQVINTELSGTPDEPEICEEMWYRSMEELLPIVEREGIRIEIQSHPWDFCELNDETVDMVQSLRSDNVTYLYSAPHGFFYDKGQGDVARMLNYAGADLSHVLLADTHNHTLPCRYIMNPPGVNATIHQHIGLGEGEVDFDALFQALREMDFANRTFKVGGEAIITTSLFGYPEKMSVQAVETRERIERELLGR | not soluble |
| MHYSSGNYEAFVRPRKSESADKKTAWLVGSGLAGLAGAAFLIRDGGVAGERITILEELDVPGGALDGLDVPEKGFVIRGGREMEEHFECLWDLYRSIPSLEVEDASVLDEFYRLNKDDPNFSLQRATQNQGQDAPDKALLTLNDRAQKDLLSVFLATREEMENKRINEVFSEDFLKSNFWLYWRTMFAFEEWHSALEMKLYLHRFIHHIGNLADFSSLKFNRYNQYESMVLPLVKWLQDHGVRFRYGIEVTDVDFDIHAEGKQATRIHWTEKGVEGGVDLGPDDLVLITIGSLTENSDNGDHHTPAKLREGPAPAWDLWRRIAAKDPAFGRPDVFGAHVTETKWASATITALDQRIPQYVEKIAKRNPFTGKIVTGGIVTVKDSSWLMSWAVHRQPHFKKQPKDQMIAWLYALFVDRPGDYVKKPMLDCTGEEITQEWLYHLGVPVEDIPELAAAGANTVPVMMPYITAFFMPRQAGDRPDVVPEGAVNFAFIGQFAESKQRDCIFTTEYSVRTPMEAVYTLMNVERGVPEVFNSTYDIRTLLAAIGPLRDGKGIDLPGPSFLHKLLMKKLEGTEIAELLKEFHLISELEHHHHHH | not soluble |
| SREWRTKIQAQIDRFPIGDREGEWQTMIQKMVSSYLVHHGYCATAEAFARSTDQTVLEELASIKNRQRIQKLVLAGRMGEAIETTQQLYPSLLERNPNLLFTLKVRQFIEMVNGTDSEVRCLGGRSPKSQDSYPVSPRPFSSPSMSPSHGMNIHNLASGKGSTAHFSGFESCSNGVISNKAHQSYCHSNKHQSSNLNVPELNSINMSRSQQVNNFTSNDVDMETDHYSNGVGETSSNGFLNGSSKHDHEMEDCDTEMEVDSSQLRRQLCGGSQAAIERMIHFGRELQAMSEQLRRDCGKNTANKKMLKDAFSLLAYSDPWNSPVGNQLDPIQREPVCSALNSAILETHNLPKQPPLALAMGQATQCLGLMARSGIGSCAFATVEDYLH | soluble |
| MSLSAYSQVSIDKTMFVEGREFLHIDQAGWVAKESTSEEDNRMSKVQEMLSEKYQKDSFSIYVKQLTTGKEAGINQDEKMYAASVLKLSYLYYTQEKINEGLYQLDTTVKYVSAVNDFPGSYKPEGSGSLPKKEDNKEYSLKDLITKVSKESDNVAHNLLGYYISNQSDATFKSKMSAIMGDDWDPKEKLISSKMAGKFMEAIYNQNGFVLESLTKTDFDSQRIAKGVSVKVAHKIGDADEFKHDTGVVYADSPFILSIFTKNSDYDTISKIAKDVYEVLKEGHHHHHH | soluble |
| MSLQLADAQADLPYIHGFSAAEQARLVRQARFSEAMVYRDVDFSGVQKLLEVGCGVGAQTEILLRRFPDVGITGLDFSQRQLAVARQRLQGSPYHDRATLLHMDAEDLDFPPASFDGAFLCWILEHVHSPERVLAEVRRVLKPGARLYATEAMNATFFLAPYSANLQQYWLAFNDHQLSVGGDPFVGAKLGNILMRLGFRHVETKVKTWHLDSREPHRRQQVLDYWAELLLSAADQLIEAGRVDAELVDSMTRELRLLRSNPELVFFYSFMQASAVVEGHHHHHH | soluble |
| MSLKNLFNKYNDMKGVSSVYISKAMMELNPNLFMKDLYIGKVAEHLNSVQVLSTHDNKVREEMAKDIRSLVQSSKYELLMKQKSTVSGSEVYVNRKGSKVKELIMVMNGASSLKFVYMEGDMTTDDIKKLMLYQSTSQNFIISGDLFYANNKPVTYFKKGNSDNQKDMAELSGTYNLNSIDTNYKEELSTLNDKLKRIDQGLKNMNIKEGHHHHHH | soluble |
| MGSDKIHHHHHHMSQPLFPVVEVPDFISEDSQYDTQYKRSMKWNTELGDFVRDGAHRIKECDGKEAFAIWCFKIAQTERYRCLAYPDSIGTEMERAMDNDDEKTVESMVERTITDAIMVNPRAENVRDFQFTWEGDQMHVTFKVKGSNWDEEIEISL | not soluble |
| MNNQYLQFVREQLIIATADLSGATKGQLEAWQENAMFDTGRYRRKKIRYRDEVTGKMITRDNPPIPGKQSLAKGTSIPLVSPVEFSTSSWRRAVLSLEEHYKAWLLWCYSGSICWEYQIAITQWAWNEFNAQSGTRKIAGKTQERLKKLIWLAAQAVKAELFGGEGYEYQELALLAGVTTKNWSKTFTRHWVAMKHIFHRLDSEALLFVMRTRSKKRRHFQSKVLQK | not soluble |
| MRKLVVGITIASLMGCSMGHRDPVEVKQALNESINQANSRALEEIPSSVEADLMPNLDSNVSSDNGTSKRFRIQANAVEARSFFASLVKGTEYSVAIHPAVQGNITVNLSDVTLDEVLSVVQNMYGYDVMKSGKVIQVYPAGMRTVTIPVDYLQFKRSGRSLTSIVTGSVTSAGTSNSGGSSDSSDSSDSNNSNNGNDSSTTSTGGTRIETITESDFWPMLQQAVANLIGSGKGQSVVVTPQAGVITVRAFPDDIREVREFLGVSQERMQRQVILEAKILEVTLSDGYQQGINWSNLSASIGNSGSIIVNRPASALPPLDAIGTLLGGQTNVTISDGNFEAVLNFMSTQGDLNVLSSPRITAANNQKSVIKVGTDQYFVTELSSNAGNGENSNAVPEVELTPFFSGISLDVTPQIDNKGNVFLHVHPAVIEVTEEVKQLNLGGDFQNIQLPLAKSSIRESDSVIRAKDGDVVVIGGLMKQQNVEQVSKVPFLGDVPALGHLFRNTSNVTQKTELVILLKPTVVGVNSWQKELERSRDLLQEWFPDAQLEHHHHHH | not soluble |
| MGSDKIHHHHHHMAYFMLLMTTPIQATIQQSMALAKAHYENFPVASVLLPKDLRAPVGLVYAFARQADDFADEGELSPEERLALLDGFRSQLDQIKHGATPDTPLFQALQAMIQERDLPLEPFYDLLSAFSQDVVKARYANFGEVIDYCRRSANPVGRLMLHLYKQATPRNVALSDAICTSLQLINFLQDVDVDYRKNRIYLPLDELQKYNITEQQIAGQHSGGTWSLFMEFQVNRTRKLLQSGAPLGLALPGRIGLEMRMIIAGGERILKKLHHVRGDVFNQRPTLKPTDWAYMLYRAVRKK | not soluble |
| MKPKKLSLLLTILPMIIAATGCHSQQESKVDITPHCINLQADSLYRQAMTLMESSCDVDSTRKCIRFLDKALAIDSLNPDYYGMKAKLLSEMGELDSALYIQTLAMEKNAITGEYLFQLGLLQAAKDMHAEAHESFGKSKVFLQAVLKQYPDSLGAFILAEAANSLYENKDSLFMRNIDEIRKRFPERLLEIEMTRRVKPHSLVNQIRRIKIEKDYNIDFDMDSLVEATVNKDLEHHHHHH | not soluble |
